From a protein production outcome set (Wang et al. 2014)

Experiment: label from the status in PepcDB records

Sequence	protein production
MTVRYFAAAAAAAGIETESLEIATGTSVAELVERLGARNPELARVLKRCSYLCDEVAVRDMAKPLVTPQTVDVLPPFAGGLEHHHHHH	failed
MRLERTFDPNDLSTQNMESPICLPIGFVHFLAQSQTLQQVLDTVAEWINRIFESDRTSITLYENSDYLKVYSFSGNKAIPADFLVPIDQAFVGRVFKNQQLIICDDVSQSDELDCVMLTSSGMGTCMDAPLMHGQMCLGTLNVAHHQTHFYTKEQAAQLQCIANWIALNIALHIQIMKMEHLATTDDLTGIPNRREFMRQIEHRLSEFRTQGIKFHVAILDLDNFKKLNDKFGHDAGDKSLIHAANTIKGHLRECDLLARVGGEEFAIVLRSRSSQEAMDTLETIRNALETTTIRYSGRDMTFTASIGVTQVCGLDDSFEPLVKRADLALYKAKETGRNRVEINHSEHQGVSNEQ	failed
TTQNELLNRIAELETKVAFQDNVIEELNQVLIHHQFVLDKLQTQVRHFANKFKNIQSSNVASQAEETPPPHY	failed
MHSQTLRLASYNIQKCVGLDLRRQPRRILQVLDAMGARIAVLQEADKRLPPRPAALPHFVLEEAGWQVVDLGGAGSLGWHGNAVIWKGAGITQLASAHHDLPGFEPRGAVRVEFDTPIGPLRVLGLHLGLLPASRRDQIVHLAHDLERLPPMPTVWAGDFNEWSRQPVLDHLAPMLRFLPARPSFPAPRPLGALDRIAHSPELSAVAHGVFAERPAPIASDHLPVWADLTRPV	failed
MKKLFPLLLLILSILVGCGKKEKHSVTEIAREKKRITALLYEKELPTDSVKQLYENSVQNKNLVGQMLFAIEVGKRMRNMSQYTDAMLYHQKGLNAALNLRDTIVAAQAWNHLGTDSRRIGALAEASDYHYKALSLIESFSGNQNRPAIKARSAALNGIGNINLELGYHDEAEKNFLKALQGEKELDSPLGQAINYANLGRIYRQRKEYDKARTYFLLSLEQNNMAENLMGIGLCSINLGEVDEEKGDYQKALQEYATAYKLMEQLSDRWHWLNSCIPMARINLKQGNERLYQHFISLAEGTAKEINSTSHLIEIYNLQYENLERKKEYKQALEAFCLSKTLSDSMSIAHKVSSIQETRFNYERNKSQKELEEIQQVSKAKQEKSKFILLSTLFALFISILLISVLTYAYRQGKKHNKLIKETDKLRSGFFTGITHEFRTPITVIQGLNEKMSSSPDLQASDRTELHKIIDRQSSHMLNLVNQLLDICKIRSGVSTPEWRNGDIVSFVQILIDSFAPYAQAQDITLELQPESKPIVVDFVPSYLQKIISNLLSNAIKYSLAGGRVVISLAKTKNEKNLIIRVADNGIGIDKTDQAHIFDIFYRGQSATEKHGSGVGLSFTNILVENLRGTIKVESQPGKGSAFTISIPTQNQSSSAEILPWLPSSDDIVMPVHIAPDDSPTSPMVAALNHRFEDERPTILLVEDNKDINLLVKLLLCDRYNVLSAANGKEGIALATEHIPDIIITDIMMPIMDGIEMTIRMKQSPLLCHIPIVALTAKSTEQDRLEGIKSGVVSYLCKPFSPEELLMRIEQLLKDRELLKKFYMQKLMLDRKPEEEPQPIDDSSMQFLLAAKDAVSGGIKQNPDFSAQDLAEKMCMSPSQLNRKLTSVVGCSTIGYIQQIKIKLACKLLADESKNISDISIEAGFSDPAYFSRTFKRYMNCSPSQYRQKLLAMPGSDKETV	failed
MLEKVFQEITNKRKFFASSSTGEQFENQFRNELKKHFSEINGDLTEELSHIEEKPNKEIKTTFNQLKKQVLEKNHPHTLKNPFSNLTSHFLYQPFGSQNYPDFLVFIFDYVVGIEIKFSKNDKGEKNLQTSRPMWNSNLPKPNAIYVYGVANANITFFKGSDILSYETREVLLKYFDILDKDERSLKNALKDLENPFGFAPYIRKAYEHKRNFLTTTRLKASFRPTTF	failed
MSVGCARIRRALRHGTSPARQHDAAAASHRRAPVVRIRMDIDAALGEQYVDYRCSRCGMVAQAAVAGYGTGLVVNGVSLSNAQLEAEVGAARAARLAPCPRCGHRGRPALLGVLLVGATVGVVAAMAIGFTVAELFHRSDPEGRLAPVVGTATFVAVVATMTALKLRSVRRRVRFHRVML	failed
MPNYINYPSWLHPEVIQGIPITWYSLSYILIILISYKFIWYQIQSDNVDIKKEDYEIFMFSLVLGAILGGRLASTLVYDKSGIYYSNPWLILLPFDQHWNFTGFRGMAIHGGFLGAIIAPLITINTNLKNTNVQKYFLKLTDYGSIAFSSGYILGRLANFANAELYGRVMKGGIIFPNAEPFDTNIPGVKEFASSVGLEISPHDLLINLPRIPSQLIEGFFEGPVTFLLLWFLFKKIKKYDGFIFGVYVMLYAFFRFFIEYLREPDKELGFIITYKPITSLSEFSFLNISMGQILSLTLMLSGLIWIIVTKKIADKKIKNNTNLAYKN	failed
SSKELLMKLRRKTGYSFVNCKKALETCGGDLKQAEIWLHKEAQKEGWSKAA	not failed
MKTYALVMAGGRGERLWPLSREDRPKPFLPLFEGKTLLEATLERLAPLVPPERTLLAVRRDQEAVARPYADGIRLLLEPLGRDTAGAVLLGVAEALKEGAERLLVLPADHYVGDDEAYREALATMLEAAEEGFVVALGLRPTRPETEYGYIRLGPREGAWYRGEGFVEKPSYAEALEYIRKGYVWNGGVFAFAPATMAELFRRHLPSHHEALERLLAGASLEEVYAGLPKISIDYGVMEKAERVRVVLGRFPWDDVGNWRALERVFSQDPHENVVLGEGRHVALDTFGCVVYADRGVVATLGVSGLVVAKVGDEVLVVPKDWAREVREVVKRLEAQE	not failed
TTSDNTALFYRHWPTLLPGAKKVIVLFHRGHEHSGRLQHIVDELAMPDTAFYAWDARGHGQTSGPRGYSPSLARSVQDVDEFVRFAASDSQVGLEEVVVIAQSVGAVMVATWVHDYAPAIRGLVLASPAFKVKLYVPLARPGLALWHRLRGLFFINSYVKGRYLTHDRQRVASFNNDPLITRAIAVNILLDLYKTSERIVSDAAAITLPTQLLISGDDYVVHRQPQIDFYQRLRSPLKELHLLPGFYHDTLGEENRAQAFEKMQSFISRLYA	failed
RLRQPMLRTGDQWQPIEWQAAFDLVAERLYAIQQQHGQNAVAVYQGNPSVHNYGLMTHSNYFLGLLKTRNRFSATSVDQLPHHLTSFLMYGHGMLLPIPDIDHTDFMLILGGNPLASNGSIMTVPDVEKRLKAIQQRGGKLVVVDPRRSETAAIADQHVFVRPGGDAALLFGLLNTLFEEGLTRESHLPVDGLDHVRHSIAGFSAEAMSPRCGIAAVQIRQLARDFAGADTALCYGRMGVSTQAFGTLCHWLAQLINLVTGNLDRVGGTLCTEPAVDLVSSTSGGHFNVWQSRVSGLPEYGGELPVSALAEEMLVEGQGQVRALVTVAGNPVLSTPNGRQLDQALEGLEFMLSIDLYINETTRHADLILPSTSALENDHYDTTFNTLAVRNVTRFNRAIFDKPEGALHDWEIFVGLAASFAAKAQRELKPTVPPAQMIDRVLRAGRYGAASPHNLSLETLASHPHGMDLGALKPNLTDRLKTANGRIQAAP	failed
SFEIGCELEAQRELRAKQTLVGQVIDEDLMSIVYQPVWDIEAMQPLGFECLARFSPLPLRSPDKWFADAAEVGMGVELELHAIRKALQAIGRFPAPIDLSVNASAATILGGDLARLFDGVPLDRLIVEITEHSSVGNYDAILDVLRPLRQRGLRLAVDDAGAGYSSLHHILNMQPDFIKLDIGLTQNIDLDPARKALARALVGFARDTGSRIVAEGVERQSELDALRSIGVKKVQGYLLGRP	failed
MVTSEGLASVDSWLYRQGFNVDSWLLSDTFSHDNDLLARALHTTVTAPHTLTPSSAFFDSSAVSHPSSTNTLSSTVSGASDPEIIGGGAKRKRNCLLTDGKAAKRRARASKKSQTTFITADPSNFRQMVQQVTGAKYIDDSSSFGIFDPIVKPEPLRFVNKLPCGPSDRSTAVPMLDTSAFLSNHHQENLAVGNAFSGNSSSVGLPSGKPSATADPGGSAVEFDNYPTFPTLESWKVM	failed
MANKKGRRRSFGSCRQLASGRWQVRYRDPQTGLLRPAEKTYETKTDAQVALTHIEADITRGQWADPDAGDVNFADYATAWLRDRKLADRTRERNESVMRLHVVPVFGAGSIADVTTARVRSWRGKLLAAGVGEPTVVKAYQLLRALMNTAVDDELIRRNPCRIKGADSYDVPERPVLSVAEVFGVAYAIAPRYRLLVLLAAFTTLRFGELAALRRKDIDLNGRLVVVRRAQAELQNGRLFDKAPKSAAGLRTVSFPAELVDEISHHLKHYAADGQEGHLFVGPQGGQLRRSNFRDDWIKARKAAGVSPKLHFHDLRHTGNTLASTAGASTRELMTRMGHSSSRAALIYQHMTSDRDRTIADRLGAMIRNGEGDLTAAGD	failed
KSEKRMKLTLKGGAAVDPDSGLEHSAHVLEKGGKVFSATLGLVDIVKGTNSYYKLQLLEDDKENRYWIFRSWGRVGTVIGSNKLEQMPSKEDAIEHFMKLYEEKTGNAWHSKNFTKYPKKFYPLEI	not failed
MGKDAKAGGKGKGKQASGSEEAPSKGKGKAGKAADGLGTCTYVKARHVLCEKQGKINEAYKKLQDGWLSNGDKVPPAEFAKIAAEYSECPSGKKGGDLGWFPRGKMAGPFQDVAFNTPVGVTSAPFKSTHGYHIILSEGRKN	failed
MKKDFASVTPAGKKTSVRWFIVFMLFLVTSINYADRATLSITGDSVQHDLGLDSVAMGYVFSAFGWAYVIGQLPGGWLLDRFGSKTIIALSIFFWSFFTLLQGAIGFFSAGTAIILLFALRFLVGLSEAPSFPGNGRVVASWFPSSERGTASAFFNSAQYFAIVIFPPLMGWLTHSFGWHSVFVVMGIAGILLAVIWLKTVYEPKKHPKVNEAELAYIEQGGGLISMDDSKSKQETESKWPYIKQLLTNRMLIGVYIAQYCITTLTYFFLTWFPVYLVQARGMSILEAGFVASLPALCGFAGGVLGGIVSDILLKKGRSLTFARKVPIIAGMLLSCSMIVCNYTDSAWLVVVIMSLAFFGKGFGALGWAVVSDTSPKECAGLSGGLFNTFGNIASITTPIIIGYIVNATGSFNGALVFVGANAIAAILSYLLLVGPIKRVVLKKQEQDPDQSLPV	failed
MTKCGHSFCYKCIHQSLEDNNRCPKCNYVVDNIDHLYPNFLVNELILKQKQRFEEKRFKLDHSVSSTNGHRWQIFQDWLGTDQDNLDLANVNLMLELLVQKKKQLEAESHAAQLQILMEFLKVARRNKREEMSGLYSPVSEDSTVPQFEAPSPSHSSIIDSTEYSQPPGFSGSSQTKKQPWYNSTLASRRKRLTAHFEDLEQCYFSTRMSRISDDSRTASQLDEFQECLSKFTRYNSVRPLATLSYASDLYNGSSIVSSIEFDRDCDYFAIAGVTKKIKVYEYDTVIQDAVDIHYPENEMTCNSKISCISWSSYHKNLLASSDYEGTVILWDGFTGQRSKVYQEHEKRCWSVDFNLMDPKLLASGSDDAKVKLWSTNLDNSVASIEAKANVCCVKFSPSSRYHLAFGCADHCVHYYDLRNTKQPIMVFKGHRKAVSYAKFVSGEEIVSASTDSQLKLWNVGKPYCLRSFKGHINEKNFVGLASNGDYIACGSENNSLYLYYKGLSKTLLTFKFDTVKSVLDKDRKEDDTNEFVSAVCWRALPDGESNVLIAANSQGTIKVLELV	failed
EVKEEDAFYSKKCKLFYKKDNEFKEKGIGTLHLKPTANQKTQLLVRADTNLGNILLNVLIPPNMPCTRTGKNNVLIVCVPNPPIDEKNATMPVTMLIRVKTSEDADELHKILLEKKDA	not failed
